Values belong to the binder of their own block, whether it stands above or below them.
Tests used:
[1] = target: T1, recombinant hOX40, extracellular part (Leu 29 - Ala 216) (human, UniProt P43489 29-216); assay: BLI
T1 chain: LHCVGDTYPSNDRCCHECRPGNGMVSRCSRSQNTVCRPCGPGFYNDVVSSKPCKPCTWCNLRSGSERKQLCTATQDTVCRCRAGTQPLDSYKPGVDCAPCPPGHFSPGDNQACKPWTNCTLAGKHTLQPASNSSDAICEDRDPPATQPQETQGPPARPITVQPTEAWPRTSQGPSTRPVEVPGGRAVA

[2] = target: T1, recombinant hOX40, extracellular part …; assay: BLI
[3] = target: T2, human OX40 on HT1080 cells (HT1080-hOX40) (Homo sapiens, UniProt P43489); assay: in vivo optical imaging; 5 µg O18-AF647 i.v. in CD1 nude mice with subcutaneous HT1080-hOX40 or HT1080-WT tumors; imaging over 6 h and ex vivo imaging of explanted tumors; details: one partner purified
T2 construct: human OX40 (CD134/TNFRSF4); the construct used for HT1080 cells is not described; source: HT1080 cells stably expressing human OX40, as subcutaneous xenograft tumors in CD1 nude mice

[4] = target: T3, hOX40 full length on U2OS cells (U2OS-hOX40) (Homo sapiens, UniProt P43489); assay: flow cytometry on cells; U2OS-hOX40 cells with dilution series of AF647-labeled Nbs (O12, O18 from 2.5 µM; O7, O19 from 10 µM), 4°C, 30 min, FACS buffer; KD as half-maximum binding at equilibrium, four-parametric sigmoidal model; details: one partner purified
T3 construct: human OX40 (CD134/TNFRSF4), cDNA GenBank NM_003327.3 in an IRES-eGFP/Blasticidin S deaminase vector; Also used as the target of the functional rows, where hOX40 stood on Jurkat-based OX40 effector cells (Promega); also called cellular expressed hOX40; hOX40 full length (D1-4); source: U2OS cells stably overexpressing hOX40, on the cell surface

[5] = target: T4, endogenous hOX40 on activated human T cells (Homo sapiens, UniProt P43489); assay: flow cytometry on cells; hPBMCs of three donors after 24 h PHA-L/IL-2 stimulation, AF647-labeled Nbs (200 nM; 400 nM for T cell subpopulations), 4°C, gated on CD3+ (and CD4+, CD8+, Treg); details: one partner purified
T4 construct: human OX40 (CD134/TNFRSF4), endogenous on T cells; also called physiologically expressed hOX40; source: endogenous, hPBMCs of healthy donors stimulated 24 h with PHA-L and IL-2 (CD3+ T cells)

[6] = target: T5, recombinant hOX40, extracellular part (Leu 29 - Ala 216) (human, UniProt P43489); assay: BLI; biotinylated Nb (5 µg/mL) immobilised on streptavidin biosensors; hOX40 dilution series 0.2 nM - 320 nM, association 300 s, dissociation 720 s; Octet buffer (PBS, 0.1% BSA, 0.02% Tween20); 1:1 ligand-binding model, global fitting; details: both partners purified
T5 construct: human OX40 (CD134/TNFRSF4), extracellular part, Leu29 to Ala216; The limits are stated for the immunogen; the BLI methods say only 'hOX40' / 'recombinant hOX40'; also called CD134; TNFRSF4; source: bought: Acrobiosystems, produced in human HEK293 cells

[7] = target: T6, hOX40 full length on U2OS cells (U2OS-hOX40) (human, UniProt P43489 29-277); assay: FACS
T6 chain: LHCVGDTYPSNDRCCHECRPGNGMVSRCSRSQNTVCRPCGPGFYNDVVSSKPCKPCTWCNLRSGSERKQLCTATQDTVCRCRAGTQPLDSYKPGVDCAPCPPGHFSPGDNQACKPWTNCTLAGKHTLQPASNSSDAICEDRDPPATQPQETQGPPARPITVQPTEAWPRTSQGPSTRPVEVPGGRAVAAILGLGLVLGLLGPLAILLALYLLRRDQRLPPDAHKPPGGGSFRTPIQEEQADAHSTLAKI

[8] = target: hOX40-Nbs with KD values in the pico- to low nanomolar range (O12, O18 and O19); assay: BLI; biotinylated Nb (5 µg/mL) immobilised on streptavidin biosensors; hOX40 dilution series 0.2 nM - 320 nM, association 300 s, dissociation 720 s; Octet buffer (PBS, 0.1% BSA, 0.02% Tween20); 1:1 ligand-binding model, global fitting
[9] = target: T7, murine OX40 on U2OS cells (Mus musculus, UniProt P47741); assay: immunostaining of cells or tissue; live-cell immunofluorescence of U2OS cells expressing hOX40 (stable) or murine OX40 (transient) with 10 -1000 nM AF647-labeled Nbs, 30 min, 4°C; details: one partner purified
T7 construct: murine OX40, DNA bought from Sino Biological (Catalog Number MG50808-NM); The catalogue suffix -NM may denote an N-terminal Myc tag (surmised); also called mOX40; source: U2OS cells, transiently transfected, on the cell surface
T7 sequence (P47741 20-272): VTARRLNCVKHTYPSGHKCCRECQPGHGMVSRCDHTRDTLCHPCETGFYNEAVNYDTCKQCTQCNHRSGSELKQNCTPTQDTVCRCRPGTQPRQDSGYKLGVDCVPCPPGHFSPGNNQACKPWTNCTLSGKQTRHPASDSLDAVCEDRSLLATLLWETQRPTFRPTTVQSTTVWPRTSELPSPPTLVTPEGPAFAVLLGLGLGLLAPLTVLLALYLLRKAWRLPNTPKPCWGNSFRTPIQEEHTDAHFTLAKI

Kd [1]: 1.93 nM
koff [2]: 0.00075 s⁻¹
B1: hOX40-Nb O18 (VHH)
VHH: QVQLVESGGGLVQPGGSLRLSCAASGFTLEDYVIGWFRQAPGKEREEVSCISGSGGIRNVADSMEGRATISRDNAKNTVYLQMNSLKPEDTAVYYCAAGFETSYSYSYYCGVHEYDYWGQGTLVTVSS
modifications: biotin where immobilised in BLI (site not stated)

fold signal intensity in HT1080-hOX40 over HT1080-WT tumors, 6 h post injection [3]: ~7 fold
Kd [4]: ~0.3 nM
B2: AF647-labeled hOX40-Nb O18 (VHH)
VHH: B1 VHH
notes: Uncoupled Nb was removed by Ni-NTA, so the His tag is probably lost on sortase coupling (surmised); also called O18_(AF647); fluorescently-labeled Nb O18; source: E. coli XL-1, purified; sortase A coupling, click labelling with DBCO-AF647, HIC

Kd [1]: 3.41 nM
koff [2]: 0.00021 s⁻¹
B3: hOX40-Nb O19 (VHH)
VHH: QVQLQESGGGLVQPGGSLRLSCAGSTDTFSMSAAVSWARQAPGKGLEWVSSILSDGSTYYADSVRGRFTISRDNANNTGSLQMNNLKVEDTAVYYCTNLRGRLWSNHKDDYGGQGSRVTVSS
modifications: biotin where immobilised in BLI (site not stated)

binding result [5]: binds
binding result [4]: binds
B4: AF647-labeled hOX40-Nb O19 (VHH)
VHH: B3 VHH
notes: Uncoupled Nb was removed by Ni-NTA, so the His tag is probably lost on sortase coupling (surmised); also called fluorescent Nb O19; source: E. coli XL-1, purified; sortase A coupling, click labelling with DBCO-AF647, HIC

binding result [6]: binds
B5: hOX40-Nb O19 (VHH)
VHH: B3 VHH
notes: source: E. coli XL-1 (pHEN6), purified (IMAC, SEC)

Kd [7]: 9.95 nM
B6: AF647-labeled hOX40-Nb O19 (VHH)
VHH: B3 VHH
modifications: C-terminal Gly-Gly-Gly-propyl-azide attached by sortase A and clicked to DBCO-AF647 (labeling ratio 1:1)

Kd [8]: 0.2 to 3.4 nM
B7: recombinant hOX40, extracellular part (Leu 29 - Ala 216) (domain or fragment)
chain: T1 chain

koff [2]: 0.00117 s⁻¹
B8: hOX40-Nb O7 (VHH)
VHH: DVQLVESGGGLVQPGGSLRLSCAASGFTFGSYAMGWARQVPGKGLEWVSGIYSDGSTYYADSVKGRFTISRDNAKNTVYLQMNSLKPEDTAVYYCATWGAAAPYDYWGQGTQVTVSS
modifications: biotin where immobilised in BLI (site not stated)

binding result [9]: binds
B9: AF647-labeled hOX40-Nb O7 (VHH)
VHH: B8 VHH
notes: Uncoupled Nb was removed by Ni-NTA, so the His tag is probably lost on sortase coupling (surmised); also called fluorescent Nb O7; source: E. coli XL-1, purified; sortase A coupling, click labelling with DBCO-AF647, HIC

Kd [6]: ~150 nM
B10: hOX40-Nb O7 (VHH)
VHH: B8 VHH
notes: as for B5

Kd [7]: 5.99 nM
B11: AF647-labeled hOX40-Nb O7 (VHH)
VHH: B8 VHH
modifications: C-terminal Gly-Gly-Gly-propyl-azide attached by sortase A and clicked to DBCO-AF647 (labeling ratio 1:1)

Kd [1]: 0.21 nM
koff [2]: 2e-05 s⁻¹
B12: hOX40-Nb O12 (VHH)
VHH: DVQLQESGGGLVQPGGSLRLSCAASGFTLDNYAIGWFRQAPGKEREGVSCISSSGESTNYADSVKGRFTISRDNAKNTVYLQTNSLKPEDTAVYYCAAVDDIGTTVQFMCNMGPYEYDYWGQGSPVTVSS
modifications: biotin where immobilised in BLI (site not stated)

Kd [4]: ~0.1 nM
B13: AF647-labeled hOX40-Nb O12 (VHH)
VHH: B12 VHH
notes: Uncoupled Nb was removed by Ni-NTA, so the His tag is probably lost on sortase coupling (surmised); also called fluorescent Nb O12; source: E. coli XL-1, purified; sortase A coupling, click labelling with DBCO-AF647, HIC

Kd [7]: 0.07 nM
B14: AF647-labeled hOX40-Nb O12 (VHH)
VHH: B12 VHH
modifications: C-terminal Gly-Gly-Gly-propyl-azide attached by sortase A and clicked to DBCO-AF647 (labeling ratio 1:1)
